Each block holds one molecule with its values, some of them ahead of it.
How the values were obtained:
Type in all cases: cell-based, mouse
[1] = test system: DMP1-responsive promoter (pGL2BS2); experiment: Transactivation of luciferase reporter plasmid under control of a DMP1-responsive promoter in NIH-3T3 fibroblasts; settings: Table 4; DMP1 coexpressed with the additive named as label (DMP1 row: no additive); vector without insert set to 1.0
Description: Coexpression of a D-type cyclin with DMP1 overrides the ability of DMP1 to transactivate a luciferase gene under the control of an artificial DMP1-responsive promoter (Table 4), as well as the ability of DMP1 to inhibit cell growth.

[2] = test system: 281 bp ARF promoter fragment; experiment: Transactivation of ARF promoter-luciferase reporter in NIH-3T3 cells; settings: NIH-3T3, 281 bp ARF promoter fragment-luciferase
Method: Transactivation assays. NIH-3T3 cells were transfected with 4 μg of pGL2-ARFpro BamHI or its DMP1 binding site mutant, with or without increasing amount of pFLEX-DMP1, pEVRFO-Ets1, pCMV-Ets2, pRcRSV-Elfl, pdEB-Fli1, p(IEB-EWS-Fli1 or pCMV-E2F-1 (89-437), and 4 μg β-actin SEAP control vectors [Inoue and Sherr, Mol. Cell. Biol. 18: 1590-1600 (1998); Inoue et al., J. Biol. Chem. 273:29188-29194 (1998); Davis and Roussel, Gene 171:265-269 (1996); Baily et al., Mol. Cell. Biol. 14:3230-3241 (1994)]. Transfections and normalization of luciferase levels with internal control SEAP levels were performed as described [Inoue and Sherr, Mol. Cell. Biol. 18:1590-1600 (1998)].
Similarly, DMP1 deletion mutants defective in transactivation [Inoue and Sherr, Mol. Cell. […] Mutation of the DMP1 binding site within the ARF promoter [changing CCCGGATGC, (SEQ ID NO:33) to CCCGTCGAC, (SEQ ID NO:42)] also completely abolished transactivation by wild-type DMP1 (FIG. 14C, mutant reporter). Therefore, sequences within the −189 to −181 ARF promoter segment were the only ones responsible for DMP1-mediated transactivation. Although Ets1 could bind to a 23 base pair oligonucleotide containing the DMP1 consensus site (FIG. 14B), several Ets proteins were unable to induce significant reporter gene expression from the more complex 281 base pair ARF promoter (FIG. 14C). […]

wild-type MEFs = experiment: BrdU incorporation / cell cycle arrest in wild-type MEFs; settings: retroviral infection
Method: (§1) BrdU incorporation and immunofluorescence. Wild-type or ARF-null MEFs (4×10^4 cells) were seeded on gelatin-coated coverslips 16 hours before virus infection. Cells were infected three times with empty vector, or vectors expressing murine DMP1, human c-Myc, human E2F-1, or human Ets1. Cells were labeled 36 hours after virus infection with bromodeoxyuridine (BrdU, Sigma) for 14 hours in complete medium. For pulse labeling, MEFs were treated with 2 μM4-HT for 36 hours and labeled with BrdU for three hours at different intervals throughout the inductive phase. Cells were fixed in ice-cold methanol-acetone (1:1) for 10 min at −20° C. and then were stained with affinity-purified antibodies to DMP1 (AF) [Hirai and Sherr, Mol. Cell. […]
(§2) Based on the above observations, it was determined as to whether introduction of DMP1 would induce synthesis of the endogenous ARF protein in normal diploid fibroblast strains. […] Although the blot was normalized for protein input, the levels of p19^ARF induced by DMP1 were calculated to be 2-fold higher than those induced by Myc, because fewer cells were productively infected with the DMP1 virus in this experiment (see FIG. 15A).

ARF-null MEFs = experiment: BrdU incorporation / cell cycle arrest in ARF-null MEFs; settings: retroviral infection
Method: as §1, §2

Luciferase Activity [1]: 5.5
B1: cyclin H: cyclin coexpressed with DMP1 (protein, UniProt Q61458 1-323, looked up)
Cyclin-H: MYHSSSQKRHWTFASEEQLARLRADANRKFKCKAVANGKVLPNDPVFLEPHEELTLCKYYEKRLLEFCSVFKPAMPRSVVGTACMYFKRFYLNNSVMEYHPRIIMLTCAFLACKVDEFNVSSPQFVGNLRESPLGQERALEQILEYELLLIQQLNFHLIVHNPYRPFEGFLIDIKTRYPMLENPEILRKTADDFLSRIALTDAYLLYTPSQIALTAILSSASRAGITMESYLSESLMLKENRTCLSQLLDIMKSMRNLVKKYEPPRSDEVAVLKQKLERCHSSDLALNAVTKKRKGYEDDDYVSKKPKQEEEEWTDDDLVDSL

B2: Ets1: Ets family transcription factor (protein, UniProt P27577 1-440, looked up)
Protein C-ets-1: MKAAVDLKPTLTIIKTEKVDLELFPSPDMECADVPLLTPSSKEMMSQALKATFSGFTKEQQRLGIPKDPRQWTETHVRDWVMWAVNEFSLKGVDFQKFCMSGAALCALGKECFLELAPDFVGDILWEHLEILQKEDVKPYQVNGANPTYPESCYTSDYFISYGIEHAQCVPPSEFSEPSFITESYQTLHPISSEELLSLKYENDYPSVILQDPLQTDTLQTDYFAIKQEVLTPDNMCLGRASRGKLGGQDSFESVESYDSCDRLTQSWSSQSSFNSLQRVPSYDSFDYEDYPAALPNHKPKGTFKDYVRDRADLNKDKPVIPAAALAGYTGSGPIQLWQFLLELLTDKSCQSFISWTGDGWEFKLSDPDEVARRWGKRKNKPKMNYEKLSRGLRYYYDKNIIHKTAGKRYVYRFVCDLQSLLGYTPEELHAMLDVKPDAD
ARF promoter reporter gene expression [2]: slightly inhibitory | cell cycle arrest (wild-type MEFs): behaved indistinguishably from those infected with the control vector | cell cycle arrest (ARF-null MEFs): behaved indistinguishably from those infected with the control vector

From patent publication US6673902B2, “Cyclin D binding factor, and uses thereof” (St. Jude Children's Research Hospital, priority 1996, dated 2004)
